In patent publication EP3837551B1 (Medizinische Hochschule Hannover, dated 2024):

T1: Serum-derived FHR1 (FHR1 from normal human serum, NHS) (human, UniProt Q03591 19-330)
T1 construct: mature; The background text says serum FHR1 circulates as homodimers and as heterodimers with FHR2; also called FHR1 from NHS
T1 sequence (looked up): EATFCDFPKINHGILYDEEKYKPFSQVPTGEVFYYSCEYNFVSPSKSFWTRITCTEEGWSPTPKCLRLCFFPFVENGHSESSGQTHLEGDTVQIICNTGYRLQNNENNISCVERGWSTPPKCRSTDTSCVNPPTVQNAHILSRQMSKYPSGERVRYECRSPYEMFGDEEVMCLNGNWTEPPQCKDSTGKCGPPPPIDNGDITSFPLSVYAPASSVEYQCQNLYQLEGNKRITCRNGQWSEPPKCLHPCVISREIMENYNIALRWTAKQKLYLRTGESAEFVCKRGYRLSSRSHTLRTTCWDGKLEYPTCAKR

T2: Recombinant FHR2, expressed in Pichia pastoris (human, UniProt P36980 19-270)
T2 construct: also called CFHR2
T2 sequence (looked up): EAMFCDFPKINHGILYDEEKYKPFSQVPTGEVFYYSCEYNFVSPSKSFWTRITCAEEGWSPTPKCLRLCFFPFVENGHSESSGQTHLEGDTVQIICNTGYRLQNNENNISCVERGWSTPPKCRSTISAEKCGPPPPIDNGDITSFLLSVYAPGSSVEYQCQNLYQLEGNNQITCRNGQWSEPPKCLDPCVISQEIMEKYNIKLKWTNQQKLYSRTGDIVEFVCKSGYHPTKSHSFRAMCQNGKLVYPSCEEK

B1: Recombinant FHR1 SCR1-2 (N-terminal fragment of FHR1) (other, human, UniProt Q03591 19-142, looked up)
chain: EATFCDFPKINHGILYDEEKYKPFSQVPTGEVFYYSCEYNFVSPSKSFWTRITCTEEGWSPTPKCLRLCFFPFVENGHSESSGQTHLEGDTVQIICNTGYRLQNNENNISCVERGWSTPPKCRS
notes: domain: SCR1-2; Expressed in P. pastoris; also called SCR1-2 of FHR1
B2: Recombinant factor H related protein 1 (FHR1), expressed in Pichia pastoris (other, human, UniProt Q03591 19-330, looked up)
chain: T1 sequence (looked up)
notes: also called CFHR1; Complement Factor H-Related Protein 1

Columns and labels:
[1] = target: T1, Serum-derived FHR1 (FHR1 from normal …); assay: ELISA, FHR1 SCR1-2 immobilized, 5% NHS, detection with mAb C18
[2] = target: T2, Recombinant FHR2, expressed in Pichia …; assay: competition ELISA, FHR2 at 0-15 ug/mL against serum FHR1 on immobilized FHR1 SCR1-2
BSA = target: T3, BSA (UniProt P02769 25-607); assay: ELISA, BSA coated at 5 ug/mL, FHR1 detected with polyclonal FHR1 antibody
T3 construct: Control protein coated on the plate
T3 sequence (P02769 25-607 limits assumed): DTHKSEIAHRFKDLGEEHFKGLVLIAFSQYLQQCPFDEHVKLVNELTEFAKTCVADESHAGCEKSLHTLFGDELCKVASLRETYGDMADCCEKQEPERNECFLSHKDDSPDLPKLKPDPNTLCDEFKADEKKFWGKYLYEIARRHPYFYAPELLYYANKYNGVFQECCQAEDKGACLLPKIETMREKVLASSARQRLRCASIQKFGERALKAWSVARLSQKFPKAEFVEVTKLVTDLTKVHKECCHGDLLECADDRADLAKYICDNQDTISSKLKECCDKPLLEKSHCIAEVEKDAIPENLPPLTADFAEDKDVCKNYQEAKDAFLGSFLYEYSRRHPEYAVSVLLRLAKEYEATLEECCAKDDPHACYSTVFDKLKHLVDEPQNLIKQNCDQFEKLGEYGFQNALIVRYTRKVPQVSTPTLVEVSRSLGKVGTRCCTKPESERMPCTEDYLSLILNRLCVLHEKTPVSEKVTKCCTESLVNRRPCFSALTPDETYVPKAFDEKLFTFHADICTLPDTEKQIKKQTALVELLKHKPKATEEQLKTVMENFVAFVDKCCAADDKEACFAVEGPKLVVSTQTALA

Binder | binding result [1] | binding result [2] | binding result (BSA)
B1 | binds | binds | 
B2 |  |  | no binding (tested: 30 ug/mL FHR1)
